These results are taken from US20110262748A1.

Assay [1] deals with human IgG antibody (manufactured by Lampire Biological Laboratories) (human). Description: column breakthrough binding capacity of human IgG, protein A on crosslinked agarose, 500 cm/hr.
The target is the same in assay [2]. The experiment in a line: column breakthrough binding capacity of human IgG, protein A on crosslinked agarose, 150 cm/hr.

With “protein A immobilized on crosslinked agarose (MabSelect Xtra, GE Healthcare Biosciences) (from UniProt P38507 37-327)”, the binding capacity in assay [1] was found to be 12 mg/mL; in assay [2], 25 mg/mL.
